The sequences below were run on Escherichia coli TOP10 (assay: shrunken log2 fold change of peptide-encoding DNA abundance (4.5 h post-induction vs induction); higher = less antimicrobial activity (less host growth inhibition)). Details: time post-induction: 4.5 h; library: site-saturation at positions 5, 18, 19, 20.
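Further: peptides expressed intracellularly from a pBAD plasmid library in pooled LB shake-flask culture, induced with 0.3% L-arabinose, DNA abundance read by NGS, three biological replicates, DESeq2 with apeglm shrinkage.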

Compared with RRIRIRPPRLPRPRPRPNGGPRP, RRIRIRPPRLPRPRPRPSIVPRP is lower in “shrunken log2 fold change” value: -0.108 for the first, -0.477 for the second.

RRIRLRPPRLPRPRPRPCHWPRP and RRIRQRPPRLPRPRPRPYHWPRP are within 0.2 log units of each other in “shrunken log2 fold change” value: -0.11 for the first, -0.0766 for the second.

First: RRIRQRPPRLPRPRPRPVSQPRP
Second: RRIRHRPPRLPRPRPRPQMRPRP
The “shrunken log2 fold change” value of the first is lower: 0.00815 for the first, 0.209 for the second.

RRIRRRPPRLPRPRPRPSTVPRP and RRIRKRPPRLPRPRPRPDFFPRP are within 0.2 log units of each other in “shrunken log2 fold change” value: -0.117 for the first, 0.0109 for the second.

Going from RRIRLRPPRLPRPRPRPMNWPRP to RRIRGRPPRLPRPRPRPYNPPRP, the “shrunken log2 fold change” value falls from 0.134 to -0.504.

Compared with RRIRTRPPRLPRPRPRPSVVPRP, RRIRFRPPRLPRPRPRPCELPRP is higher in “shrunken log2 fold change” value: -0.384 for the first, 0.00618 for the second.

First: RRIRGRPPRLPRPRPRPDCQPRP
Second: RRIRPRPPRLPRPRPRPVFFPRP
The “shrunken log2 fold change” value of the first is higher: 0.662 for the first, 0.213 for the second.

First: RRIRNRPPRLPRPRPRPTHLPRP
Second: RRIRQRPPRLPRPRPRPRYHPRP
The “shrunken log2 fold change” value of the first is higher: 0.109 for the first, -0.784 for the second.

Compared with RRIRPRPPRLPRPRPRPNNYPRP, RRIRFRPPRLPRPRPRPCYPPRP is lower in “shrunken log2 fold change” value: -0.0307 for the first, -0.451 for the second.

Compared with RRIRDRPPRLPRPRPRPSLHPRP, RRIRCRPPRLPRPRPRPMLYPRP is lower in “shrunken log2 fold change” value: 0.0986 for the first, -0.189 for the second.

RRIRIRPPRLPRPRPRPVNFPRP and RRIRRRPPRLPRPRPRPLSFPRP are within 0.2 log units of each other in “shrunken log2 fold change” value: -0.0259 for the first, -0.0589 for the second.

RRIRPRPPRLPRPRPRPMYDPRP and RRIRTRPPRLPRPRPRPLSFPRP are within 0.2 log units of each other in “shrunken log2 fold change” value: -0.0348 for the first, -0.124 for the second.

RRIRDRPPRLPRPRPRPNCSPRP and RRIRTRPPRLPRPRPRPMAAPRP are within 0.2 log units of each other in “shrunken log2 fold change” value: 0.271 for the first, 0.0975 for the second.

Going from RRIRVRPPRLPRPRPRPGCHPRP to RRIRERPPRLPRPRPRPCKMPRP, the “shrunken log2 fold change” value falls from 0.363 to -0.427.

First: RRIRIRPPRLPRPRPRPHHSPRP
Second: RRIRPRPPRLPRPRPRPIQIPRP
The “shrunken log2 fold change” value of the first is lower: -0.46 for the first, -0.119 for the second.

Going from RRIRSRPPRLPRPRPRPKADPRP to RRIRTRPPRLPRPRPRPGYNPRP, the “shrunken log2 fold change” value falls from 0.572 to -0.957.

RRIRWRPPRLPRPRPRPWSLPRP and RRIRERPPRLPRPRPRPVYWPRP are within 0.2 log units of each other in “shrunken log2 fold change” value: 0.0526 for the first, 0.0789 for the second.

Compared with RRIRRRPPRLPRPRPRPEYTPRP, RRIRQRPPRLPRPRPRPHTWPRP is lower in “shrunken log2 fold change” value: 0.166 for the first, -0.206 for the second.

Compared with RRIRCRPPRLPRPRPRPEPLPRP, RRIRTRPPRLPRPRPRPPCVPRP is lower in “shrunken log2 fold change” value: 0.438 for the first, -0.121 for the second.

RRIRRRPPRLPRPRPRPQVAPRP and RRIRSRPPRLPRPRPRPTFGPRP are within 0.2 log units of each other in “shrunken log2 fold change” value: 0.157 for the first, -0.0366 for the second.

Going from RRIRERPPRLPRPRPRPGWPPRP to RRIRPRPPRLPRPRPRPKIDPRP, the “shrunken log2 fold change” value falls from 0.398 to 0.0162.

RRIRCRPPRLPRPRPRPQDGPRP and RRIRFRPPRLPRPRPRPIWGPRP are within 0.2 log units of each other in “shrunken log2 fold change” value: 0.143 for the first, 0.0125 for the second.

Going from RRIRWRPPRLPRPRPRPPYLPRP to RRIRGRPPRLPRPRPRPLTTPRP, the “shrunken log2 fold change” value rises from -0.184 to 1.82.

Going from RRIRRRPPRLPRPRPRPRVDPRP to RRIRHRPPRLPRPRPRPTGLPRP, the “shrunken log2 fold change” value falls from 0.00278 to -0.515.

Going from RRIRFRPPRLPRPRPRPTMSPRP to RRIRPRPPRLPRPRPRPMADPRP, the “shrunken log2 fold change” value rises from -0.236 to 0.131.

Going from RRIRNRPPRLPRPRPRPQWVPRP to RRIRDRPPRLPRPRPRPLYSPRP, the “shrunken log2 fold change” value falls from 0.00681 to -0.411.

Going from RRIRFRPPRLPRPRPRPHDRPRP to RRIRARPPRLPRPRPRPTNIPRP, the “shrunken log2 fold change” value falls from 0.0063 to -0.354.

Compared with RRIRQRPPRLPRPRPRPLQYPRP, RRIRKRPPRLPRPRPRPAANPRP is higher in “shrunken log2 fold change” value: -0.0199 for the first, 0.647 for the second.

First: RRIRKRPPRLPRPRPRPSNVPRP
Second: RRIRSRPPRLPRPRPRPYQQPRP
The “shrunken log2 fold change” value of the first is higher: -0.343 for the first, -2.39 for the second.

Compared with RRIRIRPPRLPRPRPRPFDNPRP, RRIRRRPPRLPRPRPRPWWLPRP is higher in “shrunken log2 fold change” value: -1.1 for the first, -0.00877 for the second.

First: RRIRQRPPRLPRPRPRPYYYPRP
Second: RRIRPRPPRLPRPRPRPMTWPRP
The “shrunken log2 fold change” value of the first is lower: -1.18 for the first, -0.00489 for the second.

Compared with RRIRPRPPRLPRPRPRPAFYPRP, RRIRSRPPRLPRPRPRPRWKPRP is higher in “shrunken log2 fold change” value: -0.00911 for the first, 0.206 for the second.

RRIRERPPRLPRPRPRPDCDPRP and RRIRNRPPRLPRPRPRPMIPPRP are within 0.2 log units of each other in “shrunken log2 fold change” value: -0.121 for the first, 0.0389 for the second.

First: RRIRKRPPRLPRPRPRPVQKPRP
Second: RRIRKRPPRLPRPRPRPKPEPRP
The “shrunken log2 fold change” value of the first is lower: 0.242 for the first, 0.781 for the second.

First: RRIRHRPPRLPRPRPRPPLYPRP
Second: RRIRARPPRLPRPRPRPQITPRP
The “shrunken log2 fold change” value of the first is lower: -0.151 for the first, 0.118 for the second.

RRIRNRPPRLPRPRPRPIATPRP and RRIRRRPPRLPRPRPRPYVYPRP are within 0.2 log units of each other in “shrunken log2 fold change” value: -0.0576 for the first, -0.209 for the second.

RRIRQRPPRLPRPRPRPLSAPRP and RRIRRRPPRLPRPRPRPVTCPRP are within 0.2 log units of each other in “shrunken log2 fold change” value: 0.0436 for the first, -0.108 for the second.

RRIRSRPPRLPRPRPRPKMCPRP and RRIRCRPPRLPRPRPRPQQKPRP are within 0.2 log units of each other in “shrunken log2 fold change” value: -0.015 for the first, 0.13 for the second.

Going from RRIRDRPPRLPRPRPRPQRAPRP to RRIRPRPPRLPRPRPRPEYNPRP, the “shrunken log2 fold change” value falls from 0.0568 to -0.624.

First: RRIRTRPPRLPRPRPRPKDIPRP
Second: RRIRPRPPRLPRPRPRPHKWPRP
The “shrunken log2 fold change” value of the first is lower: -0.482 for the first, -0.216 for the second.

Going from RRIRVRPPRLPRPRPRPCQDPRP to RRIRQRPPRLPRPRPRPHINPRP, the “shrunken log2 fold change” value falls from -0.336 to -0.921.

RRIRRRPPRLPRPRPRPNPYPRP and RRIRTRPPRLPRPRPRPENDPRP are within 0.2 log units of each other in “shrunken log2 fold change” value: -0.0616 for the first, -0.0847 for the second.

Compared with RRIRKRPPRLPRPRPRPDVTPRP, RRIRSRPPRLPRPRPRPTGHPRP is lower in “shrunken log2 fold change” value: 1.47 for the first, -0.0852 for the second.

RRIRVRPPRLPRPRPRPFEEPRP and RRIRTRPPRLPRPRPRPMVKPRP are within 0.2 log units of each other in “shrunken log2 fold change” value: -0.000457 for the first, -0.0282 for the second.

First: RRIRERPPRLPRPRPRPTNMPRP
Second: RRIRVRPPRLPRPRPRPNLWPRP
The “shrunken log2 fold change” value of the first is lower: -0.568 for the first, -0.0401 for the second.

RRIRGRPPRLPRPRPRPFSDPRP was tested, and the “shrunken log2 fold change” value was 0.165.
